Reference: US20110086089
Numbering of substitutions follows the chain as printed. Numbers in names are those of the source.

B1: recombinant active His-tagged CK2-alpha-prime/beta (protein)
chain 1: MPGPAAGSRARVYAEVNSLRSREYWDYEAHVPSWGNQDDYQLVRKLGRGKYSEVFEAINITNNERVVVKILKPVKKKKIKREVKILENLRGGTNIIKLIDTVKDPVSKTPALVFEYINNTDFKQLYQILTDFDIRFYMYELLKALDYCHSKGIMHRDVKPHNVMIDHQQKKLRLIDWGLAEFYHPAQEYNVRVASRYFKGPELLVDYQMYDYSLDMWSLGCMLASMIFRREPFFHGQDNYDQLVRIAKVLGTEELYGYLKKYHIDLDPHFNDILGQHSRKRWENFIHSENRHLVSPEALDLLDKLLRYDHQQRLTAKEAMEHPYFYPVVKEQSQPCADNAVLSSGLTAAR
chain 2: not shown
B2: catalytically-inactive kinase-dead CK2-alpha-prime (kd.CK2-alpha-prime), K69M (protein)
chain: B1 chain 1 with K69M

What was measured:
[1] = molecular target: recombinant His-tagged wt.p27
[2] = molecular target: phosphomimicking mutant p27.S83D/T187D (recombinant, His-tagged)
[3] = molecular target: p27.Pi-S83/T187, p27 pre-phosphorylated in vitro by CK2-alpha-prime at S83 and T187
[4] = molecular target: p27deltaPi (p27.S83A/T187A; recombinant, His-tagged)
[5] = molecular target: p27.T187A (recombinant, His-tagged)
[6] = molecular target: p27.Pi-S83, p27 pre-phosphorylated in vitro by CK2-alpha-prime at S83
[7] = molecular target: p27.Pi-T187, p27 pre-phosphorylated in vitro by CK2-alpha-prime at T187
[8] = molecular target: p27.S83A (recombinant, His-tagged)
Sequence of p27.S83A (recombinant, His-tagged) (chain, as listed by the source S83A): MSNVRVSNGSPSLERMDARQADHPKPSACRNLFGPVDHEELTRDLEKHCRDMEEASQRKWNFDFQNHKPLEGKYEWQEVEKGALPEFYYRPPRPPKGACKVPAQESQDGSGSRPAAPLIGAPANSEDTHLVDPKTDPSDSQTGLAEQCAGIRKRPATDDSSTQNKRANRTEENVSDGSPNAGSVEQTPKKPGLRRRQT

Sequence of phosphomimicking mutant p27.S83D/T187D (recombinant, His-tagged) (chain, as listed by the source S83D T187D): as the sequence (chain, as listed by the source S83A) above, with A83D, T187D counted along it
Sequence of p27deltaPi (p27.S83A/T187A; recombinant, His-tagged) (chain, as listed by the source S83A T187A): as the sequence (chain, as listed by the source S83A) above, with T187A counted along it
Sequence of p27.Pi-T187, p27 pre-phosphorylated in vitro by CK2-alpha-prime at T187 (chain, as listed by the source): as the sequence (chain, as listed by the source S83A) above

Protein | phosphorylation of p27 in in vitro kinase reactions (32P incorporated into p27) [1] | recombinant CK2-alpha-prime activity in vitro (32P incorporated into histone H1) [1] | recombinant CK2-alpha-prime activity in vitro (32P incorporated into histone H1) [2] | recombinant CK2-alpha-prime activity in vitro (32P incorporated into histone H1) [3] | phosphorylation of p27 in in vitro kinase reactions (32P incorporated into p27) [4] | reduction in phosphorylation by CK2-alpha-prime [5] | recombinant CK2-alpha-prime activity in vitro (32P incorporated into histone H1) [6] | recombinant CK2-alpha-prime activity in vitro (32P incorporated into histone H1) [7] | reduction in phosphorylation by CK2-alpha-prime [8]
B1 | Wt.p27 was phosphorylated by CK2-alpha-prime | Wt.p27 completely inhibited recombinant CK2-alpha-prime activity in vitro | Simultaneous phosphorylation of S83/T187 in p27.Pi-S83/T187 or introducing phosphomimicking mutations in p27.S83D/T187D abolished the ability of p27 to inhibit CK2-alpha-prime | Simultaneous phosphorylation of S83/T187 in p27.Pi-S83/T187 or introducing phosphomimicking mutations in p27.S83D/T187D abolished the ability of p27 to inhibit CK2-alpha-prime | CK2-alpha-prime failed to phosphorylate p27deltaPi containing double-substituted mutations (S83A/T187A) | The S83A and T187A point mutants exhibited a 68% and 27% reduction in phosphorylation by CK2-alpha-prime, respectively | an incremental loss of p27 inhibitory activity towards CK2-alpha-prime when compared to wt.p27 | an incremental loss of p27 inhibitory activity towards CK2-alpha-prime when compared to wt.p27 | The S83A and T187A point mutants exhibited a 68% and 27% reduction in phosphorylation by CK2-alpha-prime, respectively
B2 | Wt.p27 was phosphorylated by CK2-alpha-prime but not catalytically-inactive kinase-dead CK2-alpha-prime (kd. CK2-alpha-prime) |  |  |  |  |  |  |  | 
